Two proteins from paper PMC4592898, “Biochemical Characterisation of Phage Pseudomurein Endoisopeptidases PeiW and PeiP Using Synthetic Peptides” (Archaea, 2015) can be followed below.

Substrate in data set [1]: C[C@H](NC(=O)CC[C@H](N)C(=O)O)C(=O)Nc1ccc([N+](=O)[O-])cc1
Nature of the data set: purified protein. The class given is biochemical, Methanobacterium phage psiM2. The settings on record: 60 °C, pH 7.85 Bistris propane, 10 mM CaCl2, 10 mM TCEP, aerobic, substrate range below Km.

Substrate in data set [2]: C[C@H](NC(=O)CC[C@H](N)C(=O)O)C(=O)Nc1ccc([N+](=O)[O-])cc1
The data set is described as follows: purified protein. The class given is biochemical, Methanothermobacter phage psiM100. As to conditions: 60 °C, pH 7.85 Bistris propane, 10 mM CaCl2, 10 mM TCEP, aerobic, substrate range limited to about 1 x Km.

B1: PeiP (Methanobacterium phage psiM2) (protein)
chain: MRSNSVNIETFKDMLKRYEDFKMKNKREPRVIFIRSGGGESIPLETFRDMVRRYNNFKDRYGREPRIVYVTPPEPPVPEVNENTPEYVSITQFKDMLSRYNRFKEVNGREPRVVFIYSGGGPSVSLETFKDMCKRYNQFLEENRREPRIVYVTPPEPPVPEEVREMRRVLGEFKTATQLYTLVSRRCKYKFYYNDQTPNREALKKMVTDGINCTDACQLFKPVIEGLGYSVRIEHVKVRCNDNKWYGHYFLRVAGKELASVSLPSERWTVWDYVSATKTGRPLGAPCCSRGIQHLGWGIVSPKHD
notes: N-terminal His-tag kept, pET151D, E. coli BL21-Rosetta 2; 338 residues and 39,537 Da with tag; monomer
As usually defined, the Km is the substrate concentration at which the rate is half of its maximum. What is called kcat is the number of substrate molecules converted per active site and unit of time at saturation. As to B1, in the data set “purified protein [1]”, the Km is listed as 4.14 ± 0.14 mM and the kcat was 1.18 ± 0.03 s⁻¹.

B2: PeiW (Methanothermobacter phage psiM100) (protein)
chain: MEVGLNEFLDMKKRYEDFKMKNKREPRYVTTKNGYKVMLPVFKDMLRRYEDFVRINGREPNYISIQPQPNGKIEIKKFRDMLRRYEDFVRINGREPNIIYLEQGKSDHVSLGTFKDMLRRYKDFVRINGREPNYISIQPQPSLKGHWTTKVIEKIGTFHDATSLYERVKKTCKYKYYYNDQVPNHVAVMRMTTSGINCTDACQLFSKVLEEMGYEVKIEHVRVKCNDGKWYGHYLLRVGGFELKDGTIWDYVSATKTGRPLGVPCCTAGFQHLGWGIVGPVYDK
notes: N-terminal His-tag kept, pET151D, E. coli BL21-Rosetta 2; 317 residues and 37,219 Da with tag; monomer
As for B2, in “purified protein [2]”, the Km is recorded as 6.25 ± 0.44 mM and the catalytic constant (kcat) was 5.73 ± 0.22 s⁻¹.
